{
  "source": "paper PMC9884143",
  "about": "(The Journal of Biological Chemistry, 2023)",
  "key": {"[1]": {"molecular_target": "SARS-CoV-2 Spike receptor-binding domain (RBD), B.1.1.529 (Omicron) variant (SARS-CoV-2, Omicron B.1.1.529 (BA.1 RBD), strain)"}, "[2]": {"molecular_target": "SARS-CoV-2 Spike receptor-binding domain (RBD), Delta variant (SARS-CoV-2, Delta (B.1.617.2; L452R, …, strain)"}},
  "data": [
    {"binder": "CoV2-YD-5 (VHH) VHH: QVQLVESGGGLVQAGGSLRLSCVASGTTISTYNLLWFRQAPGQQREWVASISSGGDTSYAGSVKGRFTISRDNTENTMYLQMNSLKPEDTAVYYCHGANAAHGMDYWGKGTQVTVS", "values": [
      {"measurement": "Kd", "setting": "[1]", "value": 0.66, "unit": "nM"}
    ]},
    {"binder": "CoV2-YD-35 (VHH) VHH: DVQLVESGGGLVQAGDSLRLSCTASGRTFTTNAMGWFRQAPGKEREFVAAISWSYGTTYYSDPVEGRFTISRSNAKNTVYLQMNSLKPDDTAVYYCTLRSRFNAAAWTTEAAFDYWGQGTQVTVS", "values": [
      {"measurement": "Kd", "setting": "[1]", "value": 0.465, "unit": "nM"},
      {"measurement": "Kd", "setting": "[2]", "value": 0.185, "unit": "nM"}
    ]},
    {"binder": "CoV2-YD-38 (VHH) VHH: DVQLVESGGGLVQAGDSLRLSCAASGRTFTTNAMGWFRQAPGKEREFVAAISWNSGTTYYSDPVKGRFTISRDNAKNTVYLQMNSLKPGDTAVYYCTLRSRFNAYAWTTENAFDYWGQGTQVTVS", "values": [
      {"measurement": "Kd", "setting": "[1]", "value": 2.82, "unit": "nM"},
      {"measurement": "Kd", "setting": "[2]", "value": 0.256, "unit": "nM"}
    ]},
    {"binder": "CoV2-YD-37 (VHH) VHH: DVQLVESGGGLVQAGDSLRLSCTASGRTFTTNAMGWFRQAPGKEREFVAAISWNYDTTYYSDPVEGRFTISRSNAKNTVYLQMNSLKPDDTAVYYCTLRSRFNAAAWTTEAAFDYWGQGTQVTVS", "values": [
      {"measurement": "Kd", "setting": "[1]", "value": 1.56, "unit": "nM"},
      {"measurement": "Kd", "setting": "[2]", "value": 2.4, "unit": "nM"}
    ]},
    {"binder": "CoV2-YD-36 (VHH) VHH: QVQLVESGGGLVQAGDSLRLSCTASGRTFTTNAMGWFRQAPGKEREFVAAITWSYGTTYYSDPVEGRFTISRSNAKNTVYLQMNSLKPDDTAVYYCTLRSRFNAAAWTTEAAFDYWGQGTQVTVS", "values": [
      {"measurement": "Kd", "setting": "[1]", "value": 0.263, "unit": "nM"},
      {"measurement": "Kd", "setting": "[2]", "value": 0.022, "unit": "nM"}
    ]},
    {"binder": "CoV2-YD-12 (VHH) VHH: QVQLVESGGGLVQAGGSLRLSCAASGSTFSRLNILWWRQAAGKPREWVATSTDGGTRNYAAAVKGRFTISRDNAKNTVYLQMNSLKPEDTAVYYCYTPDYWGQGTQVTVS", "values": [
      {"measurement": "Kd", "setting": "[1]", "value": 0.416, "unit": "nM"}
    ]},
    {"binder": "Rescue-1 (VHH) VHH: DVQLVESGGGLVQAGDSLRLSCTASGRTFTTNAMGWFRQAPGKEREFVAAITWSYGTTYYSDPVEGRFTISRDNAKNTVYLQMNSLKPEDTAVYYCFYERLAWDTSTYWGQGTQVTVS", "values": [
      {"measurement": "Kd", "setting": "[1]", "value": 7.02, "unit": "nM"},
      {"measurement": "Kd", "setting": "[2]", "value": 14.1, "unit": "nM"}
    ]},
    {"binder": "Rescue-3 (VHH) VHH: DVQLVESGGGLVQAGDSLRLSCTASGRTFTTNAMGWFRQAPGKEREFVAAISWNSGTTYYSDPVKGRFTISRDNAKNTVYLQMNSLKPEDTAVYYCFYERLAWDTSTYWGQGTQVTVS", "values": [
      {"measurement": "Kd", "setting": "[1]", "value": 60.6, "unit": "nM"},
      {"measurement": "Kd", "setting": "[2]", "value": 27.1, "unit": "nM"}
    ]},
    {"binder": "Rescue-2 (VHH) VHH: DVQLVESGGGLVQAGDSLRLSCTASGRTFTTNAMGWFRQAPGKEREFVAAISWNYDTTYYSDPVEGRFTISRDNAKNTVYLQMNSLKPEDTAVYYCFYERLAWDTSTYWGQGTQVTVS", "values": [
      {"measurement": "Kd", "setting": "[1]", "value": 27, "unit": "nM"},
      {"measurement": "Kd", "setting": "[2]", "value": 11.2, "unit": "nM"}
    ]},
    {"binder": "CoV2-YD-11 (VHH) VHH: QVQLVESGGGLVQAGGSLRLSCVVSGTTFSRYDMGWYRQAPGKARETVATISRSGTTNYAYFVKGRFTITRDNAKNTVYLQMNSLKPEDTAVYYCYIFGLDYWGQGTQVTVS", "values": [
      {"measurement": "Kd", "setting": "[1]", "value": 0.721, "unit": "nM"}
    ]},
    {"binder": "CoV2-YD-13 (VHH) VHH: QVQLVESGGGLVQAGGSLRLSCAASGFTFDDYAIGWFRQAPGKEREGVSCISSSGGFTNYADSVKGRFTISSDNAKNTVYLQMNSLKPEDTAVYYCAVVVNGYGLDEWAYDYWGQGTQVTVS", "values": [
      {"measurement": "Kd", "setting": "[1]", "value": 3.64, "unit": "nM"},
      {"measurement": "Kd", "setting": "[2]", "value": 45.4, "unit": "nM"}
    ]},
    {"binder": "CoV2-YD-14 (VHH) VHH: QVQLVESGGGLVQAGGSLRLSCSASGNTFSTYSLSWYRQAPGKQREFVAAISSGGSTSYANSVKGRFSISRDNAKKTMYLQMNSLKPEDTAVYYCYVVTTLMDYWGQGTQVTVS", "values": [
      {"measurement": "Kd", "setting": "[1]", "value": 0.655, "unit": "nM"}
    ]}
  ]
}
